# From the RNAGym collection of RNA variant scans (doi:10.7554/elife.80360)
# B1: CPEB3 Ribozyme (parent)
# chain: GGGGGCCACAGCAGAAGCGUUCACGUCGCGGCCCCUGUCAGAUUCUGGUGAAUCUGCGAAUUCUGCUGU
# Variants of: B1
# Test: self-cleavage, relative activity (ratio to wild type); higher = more cleavage; co-transcriptional
row,Variant,self-cleavage
1,GGGGGCCACAGCAGAAGAGUUCACGUCGCGGCCCCUGUCAGAUUCUGGUGAACCUGCGAAUUCUGCUGU,0.169
2,GGGGGCCACAGCAGAAGAGUUCACGUCGCGGCCCCUGUCAGAUUCUCGUGAAUCUGCGAAUUCUGCUGU,0.181
3,GGGGGCCACAGCAGAAGAGUUCACGUCGCGGCCCCUGUCAGAUUCUUGUGAAUCUGCGAAUUCUGCUGU,0.203
4,GGGGGCCACAGCAGAAGAGUUCACGUCGCGGCCCCUGUCAGAUUCUAGUGAAUCUGCGAAUUCUGCUGU,0.232
5,GGGGGCCACAGCAGAAGAGUUCACGUCGCGGCCCCUGUCAGAUUCUGGUAAAUCUGCGAAUUCUGCUGU,0.191
6,GGGGGCCACAGCAGAAGAGUUCACGUCGCGGCCCCUGUCAGAUUCUGGUUAAUCUGCGAAUUCUGCUGU,0.284
7,GGGGGCCACAGCAGAAGAGUUCACGUCGCGGCCCCUGUCAGAUUCUGGUCAAUCUGCGAAUUCUGCUGU,0.208
8,GGGGGCCACAGCAGAAGAGUUCACGUCGCGGCCCCUGUCAGAUUCUGGUGAAUCUCCGAAUUCUGCUGU,0.186
9,GGGGGCCACAGCAGAAGGGUUCACGUCGCGGCCCCUGUCAGAUUCUGGUGAAUCUGCGUAUUCUGCUGU,0.17
10,GGGGGCCACAGCAGAAGGGUUCACGUCGCGGCCCCUGUCAGAUUCUGGUGAAUCUGCGGAUUCUGCUGU,0.22
11,GGGGGCCACAGCAGAAGAGUUCACGUCGCGGCCCCUGUCAGAUUCUGGUGAAUCUGCGAAUUCUGCUGA,0.302
12,GGGGGCCACAGCAGAAGAGUUCACGUCGCGGCCCCUGUCAGAUUCUGGUGAAUCUGCGAAUUCUGCUGG,0.307
13,GGGGGCCACAGCAGAAGAGUUCACGUCGCGGCCCCUGUCAGAUGCUGGUGAAUCUGCGAAUUCUGCUGU,0.123
14,GGGGGCCACAGCAGAAGAGUUCACGUCGCGGCCCCUGUCAGAUACUGGUGAAUCUGCGAAUUCUGCUGU,0.185
15,GGGGGCCACAGCAGAAGAGUUCACGACGCGGCCCCUGUCAGAUUCUGGUGAAUCUGCGAAUUCUGCUGU,0.128
16,GGGGGCCACAGCAGAAGAGUUCACGUCUCGGCCCCUGUCAGAUUCUGGUGAAUCUGCGAAUUCUGCUGU,0.889
17,GGGGGCCACAGCAGAAGAGUUCACGUCCCGGCCCCUGUCAGAUUCUGGUGAAUCUGCGAAUUCUGCUGU,0.426
18,GGGGGCCACAGCAGAAGAGUUCACGUCACGGCCCCUGUCAGAUUCUGGUGAAUCUGCGAAUUCUGCUGU,0.12
19,GGGGGCCACAGCAGAAGGGUUCACGUCGCGGCCCCUGUCAGAUUCUGGUGAAUCUGCGAAUUCUGCUGU,0.188
20,GGGGGCCACAGCAGAAGGGUUCACGUCGCGGCCCCUGUCAGAUUCUGGUGCAUCUGCGAAUUCUGCUGU,0.159

row,Variant,self-cleavage
1,GGGGGCCACAGCAGAAGAGUUCACGUCGCGGCCCCUGUCAGAAUCUGGUGAAUCUGCGAAUUCUGCUGU,0.117
2,GGGGGCCACAGCAGAAGAGUUCACGUCGCGGCCCCUGUCAGAGUCUGGUGAAUCUGCGAAUUCUGCUGU,0.117
3,GGGGGCCACAGCAGAAGGGUUCACGUCGCGGCCCCUGUCAGAUUCUGGUGAUUCUGCGAAUUCUGCUGU,0.0952
4,GGGGGCCACAGCAGAAGGGUUCACGUCGCGGCCCCUGUCUGAUUCUGGUGAAUCUGCGAAUUCUGCUGU,0.167
5,GGGGGCCACAGCAGAAGGGUUCACGUCGCGGCCCCUGUCCGAUUCUGGUGAAUCUGCGAAUUCUGCUGU,0.152
6,GGGGGCCACAGCAGAAGAGUUCACGUCGCGGCCCCUGUCAGAUUCUGGUGAAUCUGCGAAGUCUGCUGU,0.166
7,GGGGGCCACAGCAGAAGAGUUCACGUCGCGGCCCCUGUCAGAUUCUGGUGAAUCUGCGAAAUCUGCUGU,0.138
8,GGGGGCCACAGCAGAAGGGUUCACGUCGCGGCCCCUGUCAGAUUCUGGUGAAUCUGCGACUUCUGCUGU,0.0758
9,GGGGGCCACAGCAGAAGGGUUCACGUCGCGGCCCCUGUCAGAUUCUGGUGAAUCUGCGAGUUCUGCUGU,0.137
10,GGGGGCCACAGCAGAAGGGUUCACGUCGCGGCCCCUGUCAGAUUCUGGUGAAUCUGCGAUUUCUGCUGU,0.154
11,GGGGGCCACAGCAGAAGAGUUCACGUCGCGGCCCCUGUCAGAUUCUGUUGAAUCUGCGAAUUCUGCUGU,0.186
12,GGGGGCCACAGCAGAAGAGUUCACGUCGCGGCCCCUGUCAGAUUCAGGUGAAUCUGCGAAUUCUGCUGU,0.217
13,GGGGGCCACAGCAGAAGAGUUCACGUCGCGGCCCCUGUCAGAUUCGGGUGAAUCUGCGAAUUCUGCUGU,0.219
14,GGGGGCCACAGCAGAAGAGUUCACGUCGCUGCCCCUGUCAGAUUCUGGUGAAUCUGCGAAUUCUGCUGU,0.132
15,GGGGGCCACAGCAGAAGAGUUCACGUCGCCGCCCCUGUCAGAUUCUGGUGAAUCUGCGAAUUCUGCUGU,0.133
16,GGGGGCCACAGCAGAAGAGUUCACGUCGCAGCCCCUGUCAGAUUCUGGUGAAUCUGCGAAUUCUGCUGU,0.117
17,GGGGGCCACAGCAGAAGAGUUCACGUCGCGGCCCCUGUCAGAUUCUGGUGAAUCUGCGAAUUCUGCCGU,0.23
18,GGGGGCCACAGCAGAAGAGUUCACGUCGCGGCCCCUGUCAGAUUCUGGUGAAUCUGCGAAUUCUGCAGU,0.268
19,GGGGGCCACAGCAGAAGAGUUCACGUCGCGGCCCCUGUCAGAUUCUGGUGAAUCUGCGAAUUCUGCGGU,0.348
